Assay [1] concerns Murine macrophage-like RAW 264.7 cells. As to the kind of experiment: Cellular HMGB1 and TN uptake. The format is cell-based, mouse. As to conditions: 2 h. As for the experimental part: Highly purified recombinant HMGB1 and TN protein were labeled with either Alexa Fluor 555 or Alexa Fluor 488 using respective labeling kit (Cat. # A30007 or Cat. # A30006, Thermo Fisher Scientific) according to the manufacturer's instructions. Murine macrophage-like RAW 264.7 cells on cover slips were incubated with unlabeled or Alexa Fluor 555-labeled HMGB1 in the absence or presence of unlabeled or Alexa Fluor 488-labeled TN at 37° C. for 2 h. An endocytosis inhibitor, Dynasore (8.0 μM), or mAb8 (60 μg/ml) were added 30 min before the addition of HMGB1 or TN. Following extensive washings with 1×PBS, cells were fixed with 4% formalin for 20 min at room temperature and mounted on the slide using Vectashield Mounting Medium for Fluorescence with DAPI (Vector Laboratories, Inc., Cat. # H-1200) for nuclei staining (blue). Endocytic uptake of Alexa Fluor 555-labeled HMGB1 (red) or Alexa Fluor 488-labeled TN (green) was visualized via Carl Zeiss fluorescence microscope. To quantitate cellular uptake of HMGB1 and TN, macrophage cultures were incubated with recombinant HMGB1 and TN either individually, or in combination, at 37° C. for 2 h. Following extensive washing, cellular levels of HMGB1 and TN were measured by Western blotting analysis with reference to a house-keeping protein, β-actin.

The test system of assay [2] is murine peritoneal macrophages. Description: TN/HMGB1-induced macrophage cell death (trypan blue, LDH release). The format is cell-based, mouse. The following applies: dynasore 10.0 μM, 16 h. The procedure:
(§1) FIG. 12(A)-12(C): TN and HMGB1 cooperate to induce macrophage cell death. 12(A) Thioglycolate-elicited murine peritoneal macrophages were treated with TN (10 μg/ml) in the absence or presence of HMGB1 (0.5 μg/ml), TN-specific mAb8 (65.0 μg/ml), or dynasore (10.0 μM) for 16 h, and cell viability was assessed by trypan blue dye exclusion or LDH release assay. *, P<0.05 versus negative control; #, P<0.05 versus “+TN” or “+HMGB1” alone; &, P<0.05 versus positive control “+TN+HMGB1” group, n=6-10 per group. 12(B) Murine peritoneal macrophages were stimulated with TN (10 μg/ml) in the absence or presence of HMGB1 (1.0 μg/ml) for 16 h, and the cell-conditioned medium was assayed for ASC release by Western blotting analysis. SDS-PAGE gel indicated equivalent sampling loading. Bar graph represented average of three samples (n=3) from two independent experiments (N=2). *, P<0.05 versus negative controls (“−HMGB1−TN”); #, P<0.05 versus positive control (“+HMGB1” or “+TN” alone). 12(C) Differentiated human macrophages were stimulated with HMGB1 (1.0 μg/ml) and TN (10.0 μg/ml) in the absence or presence of TN-specific mAb (40 μg/ml) or dynasore (20.0 μM) for 16 h. Subsequently, cells were immunostained with Alexa Fluor 594-conjugated anti-ASC IgGs. Scale bars: 10 μm. Narrow arrows point to minute ASC puncta; Wide arrow points to a larger ASC speck. […]
For orientation: LDH leaks from cells whose membrane has failed.

Assay [3] concerns differentiated human macrophages. As to the kind of experiment: TN/HMGB1-induced formation of ASC foci/speck. It is filed as cell-based. The following applies: dynasore 20.0 μM, 16 h. As for the experimental part: as §1
Assay [4] concerns Balb/C mice subjected to CLP sepsis. As to the kind of experiment: Sepsis-induced tissue injury (lung histology, serum liver enzymes) after CLP. As to conditions: TN supplementation, 2 and 24 h post CLP. The format is in vivo, mouse.
The subject of assay [5] is murine peritoneal macrophages. As to the kind of experiment: LPS- or SAA-induced HMGB1 release in murine macrophages. It is filed as cell-based, mouse. The following applies: 16 h. The procedure:
(§2) Primary peritoneal macrophages were isolated from young male Balb/c (7-8 wks, 20-25 g) at 3 days after intraperitoneal injection of 2 ml thioglycollate broth (4%) as previously described. Briefly, mice were sacrificed by CO2 asphyxiation, and the abdomen region was immediately cleaned with 70% ethanol before making a small excision to expose the abdominal wall, and to insert a catheter into viscera-free pocket to wash out peritoneal macrophages with sucrose solution (11.6%, 7.0 ml). […] The intracellular and extracellular levels of HMGB1, TN, or various other cytokines/chemokines were respectively determined by Western blotting analysis, and Cytokine Antibody Arrays as previous described.
(§3) The levels of TN in human or murine serum were determined by Western blotting analysis using commercial rabbit mAb against the C-terminus of human TN (Abcam) or our home-made murine mAbs (mAb8) against recombinant human TN. Similarly, the cellular and extracellular levels of TN and HMGB1 in murine macrophage and human monocyte cultures were determined by Western blotting analysis using rabbit polyclonal or monoclonal antibodies. […] The relative band intensity was quantified using the UN-SCAN-IT Gel Analysis Software Version 7.1 (Silk Scientific Inc., Orem, UT, USA).

A further assay has as its system macrophage cultures. Description: Cytokine Antibody Array of macrophage cultures. The format is cell-based, mouse. The following applies: even at 20 μg/ml. As for the experimental part:
(§4) Primary peritoneal macrophages were isolated from young male Balb/c (7-8 wks, 20-25 g) at 3 days after intraperitoneal injection of 2 ml thioglycollate broth (4%) as previously described. Briefly, mice were sacrificed by CO2 asphyxiation, and the abdomen region was immediately cleaned with 70% ethanol before making a small excision to expose the abdominal wall, and to insert a catheter into viscera-free pocket to wash out peritoneal macrophages with sucrose solution (11.6%, 7.0 ml). Human blood was purchased from the New York Blood Center (Long Island City, NY, USA), and human peripheral blood mononuclear cells (HuPBMCs) were isolated by density gradient centrifugation through Ficoll (Ficoll-Paque PLUS, Pharmacia, Piscataway, NJ, USA) as previously described. Murine macrophages and human monocytes (HuBPMCs) were cultured in DMEM supplemented with 1% penicillin/streptomycin and 10% FBS or 10% human serum. When reaching 70-80% confluence, adherent cells were gently washed with, and immediately cultured in, OPTI-MEM I before stimulating with crude LPS, purified SAA, HMGB1, in the absence or presence of human TN. The intracellular and extracellular levels of HMGB1, TN, or various other cytokines/chemokines were respectively determined by Western blotting analysis, and Cytokine Antibody Arrays as previous described. […]

The subject of a further assay is primary human monocytes. Description: Cytokine Antibody Array of human monocyte cultures. As to conditions: TN 10 μg/ml, 16 h. The format is cell-based. As for the experimental part: as §4
A further assay concerns the target T1, HMGB1 (Rattus norvegicus, UniProt P63159).
T1 construct: made in house; host or cells: E. coli BL21 (DE3) pLysS
T1 sequence (P63159 1-215): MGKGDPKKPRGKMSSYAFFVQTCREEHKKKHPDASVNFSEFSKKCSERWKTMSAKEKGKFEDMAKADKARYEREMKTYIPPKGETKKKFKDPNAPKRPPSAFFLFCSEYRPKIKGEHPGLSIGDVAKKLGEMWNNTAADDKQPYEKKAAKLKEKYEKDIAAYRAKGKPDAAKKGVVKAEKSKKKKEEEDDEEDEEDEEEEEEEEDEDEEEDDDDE
Description: OpenSPR assay of TN/HMGB1 interaction. It is filed as binding. As to conditions: TN or HMGB1 conjugated to the sensor chip. An excerpt: The cDNA encoding for rat HMGB1 was cloned onto a pCAL-n vector, and the recombinant CBP-HMGB1 (rHMGB1) was expressed in E. coli BL21 (DE3) pLysS cells as previously described. Recombinant HMGB1 containing a ˜3 kDa calmodulin-binding peptide tag (CBP-HMGB1 fusion protein, 33 kDa) was expressed in E. coli, and purified to remove contaminating endotoxin by Triton X-114 extraction as previously described. Recombinant human TN corresponding to residue 22-202 amino acid (without the 21-amino acid leader signal sequence) with a C-terminal histidine tag were expressed in E. coli BL21 (DE3) pLysS cells and purified by histidine-affinity and Triton X-114 extraction to remove contaminating endotoxins. Recombinant TN and HMGB1 proteins were tested for LPS content by the chromogenic Limulus amebocyte lysate assay (Endochrome; Charles River), and the endotoxin content was less than 0.01 U per microgram of recombinant proteins.
We employed the Nicoya Lifesciences gold-nanoparticle-based Open Surface Plasmon Resonance (OpenSPR) technology (Kitchener, ON, Canada) to characterize protein-protein interactions following the manufacturer's instructions. […] The response units were recorded over time, and the binding affinity was estimated as the equilibrium dissociation constant KD using the Trace Drawer Kinetic Data Analysis v.1.6.1. […]

The test system of another assay is human blood monocytes. Description: LPS- or SAA-induced HMGB1 release in human monocytes. It is filed as cell-based. The following applies: 16 h. The procedure: as §2, §3
Assay [6] has as its system murine peritoneal macrophages. Description: ASC release in macrophage cultures (Western blotting). The format is cell-based, mouse. As to conditions: 16 h. As for the experimental part: as §2, §3
In general terms: Immunoblotting shows a protein as a band on a membrane.

The mark [7] stands for this setting: Dynasore 8.0 μM or mAb8 60 μg/ml.

These results are taken from US12497446B2, “Tetranectin-targeting monoclonal antibodies to fight against lethal sepsis and other pathologies” (The Feinstein Institutes For Medical Research, priority 2019, dated 2025).

For the molecule `O=C(N/N=C/c1ccc(O)c(O)c1)c1cc2ccccc2cc1O` [dynasore], in [1] (setting [7]), the “HMGB1-enhanced cellular uptake of TN” value is reported as “similarly attenuated” and the “TN-mediated enhancement of cellular HMGB1 uptake” value is listed as “prevented”. In addition, the “TN/HMGB1 induced cell death” value in assay [2] is on record as “inhibit”. Moreover, the “TN/HMGB1 induced ASC aggregation” value in assay [3] is given as “inhibit”.

B1: tetranectin (protein, UniProt P05452 22-202, looked up)
Tetranectin: EPPTQKPKKIVNAKKDVVNTKMFEELKSRLDTLAQEVALLKEQQALQTVCLKGTKVHMKCFLAFTQTKTFHEASEDCISRGGTLGTPQTGSENDALYEYLRQSVGNEAEIWLGLNDMAAEGTWVDMTGARIAYKNWETEITAQPDGGKTENCAVLSGAANGKWFDKRCRDQLPYICQFGIV
As to B1, the “sepsis-induced injury in the liver” value in [4] (ALT and AST at 28 h) is listed as “marked attenuation”. Further, in assay [4] (analysis at 28 h), the “sepsis-induced injury in the lung” value is on record as “marked attenuation”. In [1] (TN at physiological concentrations), the HMGB1 cellular uptake entry is “markedly enhanced”. In addition, the “LPS- and SAA-induced HMGB1 release” value in assay [5] is reported as “dose-dependently inhibited”. For the same molecule, in the assay with macrophage cultures, the “LPS-, SAA-, or HMGB1-induced release of other cytokines and chemokines” value is listed as “did not inhibit”. In the assay on primary human monocytes, the “release of ENA-78 (CXCL5, LIX)” value is “reproducibly and specifically induced the release”; the “release of GRO (CXCL1 or KC)” value was “reproducibly and specifically induced the release”. In the assay with HMGB1, the “estimated equilibrium disassociation constant (KD) between TN and HMGB1” value is 1.21 to 2.88 nM. In addition, the “LPS- and SAA-induced HMGB1 release” value with human blood monocytes is on record as “dose-dependently inhibited”. Besides, in [6], the “ASC release, added individually” value was “weakly induced” and the “ASC release, co-addition with HMGB1” value is “synergistic enhancement”.
